Assay results reported in PMC5852081, “The preprophase band-associated kinesin-14 OsKCH2 is a processive minus-end-directed microtubule motor” (Nature Communications, 2018).

Legend:
[1] = molecular target: GFP-OsKCH1/KCH2 (O. sativa) (UniProt Q0IMS9); assay: single-molecule photobleaching (TIRF microscopy); GFP-tagged motors bound to surface-immobilized microtubules in the single-molecule motility buffer without ATP, room temperature; photobleaching steps counted
[2] = molecular target: GFP-OsKCH2(289–720) (O. sativa); assay: sucrose gradient centrifugation; 5–20% sucrose gradient in BRB80 with 25 mM KCl, 150,000 x g, 4 °C, 18 h; fractions by SDS-PAGE; standards CA, BSA, AD, amylase, apoferritin
[3] = molecular target: GFP-OsKCH2(289–767) (O. sativa); assay: single-molecule photobleaching (TIRF microscopy); GFP-tagged motors bound to surface-immobilized microtubules in the single-molecule motility buffer without ATP, room temperature; photobleaching steps counted
[4] = molecular target: GFP-OsKCH2(289–767) (O. sativa); assay: sucrose gradient centrifugation; 5–20% sucrose gradient in BRB80 with 25 mM KCl, 150,000 x g, 4 °C, 18 h; fractions by SDS-PAGE; standards CA, BSA, AD, amylase, apoferritin
[5] = molecular target: GFP-OsKCH2(289–767)^T (not stated | O. sativa); assay: single-molecule photobleaching (TIRF microscopy); GFP-tagged motors bound to surface-immobilized microtubules in the single-molecule motility buffer without ATP, room temperature; photobleaching steps counted
[6] = molecular target: the molecule itself; assay: not stated; oligomeric state of GFP-OsKCH1(292–744), Supplementary Fig. 5d, e; legend not shown

## GFP-OsKCH1/KCH2 (from UniProt Q0IMS9 292-705) (domain or fragment)
[1]
  stoichiometry N: 2

## GFP-OsKCH2(289–720) (domain or fragment)
[2]
  stoichiometry N: 2

## GFP-OsKCH2(289–767) (domain or fragment)
[3]
  stoichiometry N: 2
[4]
  stoichiometry N: 2

## GFP-OsKCH2(289–767)^T (domain or fragment)
[5]
  stoichiometry N: 4

B1: GFP-OsKCH1(292–744) (domain or fragment, O. sativa, UniProt Q0IMS9 292-744, looked up)
chain: GEVKQFQLEAQTNFDVQQKQIQELKGALSFVKSGMEQLRLQYSEEFAKLGKHFYTLSNAASSYHKVLEENRKLYNQIQDLKGNIRVYCRVRPFLPGHRSLSSSVADTEERTITIITPTKYGKDGCKSFSFNRVFGPASTQEEVFSDMQPLIRSVLDGFNVCIFAYGQTGSGKTFTMSGPKVLTEESLGVNYRALNDLFNIKAQRKGTIDYEISVQMIEIYNEQVRDLLQDGGNRRLEIRNTPQKGLAVPDASIVPVTSTADVVELMNQGQKNRAVGSTAINDRSSRSHSCLSVHVQGKYLTSGAMLRGCMHLVDLAGSERVDKSEVVGDRLKEAQYINKSLSALGDVIASLAQKNSHVPYRNSKLTQLLQDSLGGQAKTLMFVHVSPELDAVGETISTLKFAERVASVELGAAKANKEGSEVRELKEQIATLKAALAKKEGEPENIQSTQSSP
notes: codon-optimized synthetic cDNA; source: E. coli BL21 Rosetta (DE3), purified (Talon beads); not shown: GFP, N-terminal, kept
[6]
  stoichiometry N: 2
